# Measured values from US20120329708A1 (INDIANA UNIVERSITY RESEARCH AND TECHNOLOGY, published 2012).
# *1 amine or outer side, *2 acyl side, *3 side chain or, on linkers, in order; H or OH if unused. Where no end group is shown, it is not given here. Side-chain parts run from the residue outwards. [ ]: non-standard residue; d: D form. The star is where a group is joined. 40K‑TE PEG = 40 kDa PEG attached to Cys by thioether; γGlu = O=C(O)[C@H](CCC(=O)[*:2])N[*:1]; Palmitoyl = CCCCCCCCCCCCCCCC(=O)*; Morn = not defined here; Aib = CC(C)(N)C(=O)O
# T1: human GIPR (CHO-K1 cells stably expressing human GIPR) (human, UniProt P48546 22-466)
# T1 sequence (looked up): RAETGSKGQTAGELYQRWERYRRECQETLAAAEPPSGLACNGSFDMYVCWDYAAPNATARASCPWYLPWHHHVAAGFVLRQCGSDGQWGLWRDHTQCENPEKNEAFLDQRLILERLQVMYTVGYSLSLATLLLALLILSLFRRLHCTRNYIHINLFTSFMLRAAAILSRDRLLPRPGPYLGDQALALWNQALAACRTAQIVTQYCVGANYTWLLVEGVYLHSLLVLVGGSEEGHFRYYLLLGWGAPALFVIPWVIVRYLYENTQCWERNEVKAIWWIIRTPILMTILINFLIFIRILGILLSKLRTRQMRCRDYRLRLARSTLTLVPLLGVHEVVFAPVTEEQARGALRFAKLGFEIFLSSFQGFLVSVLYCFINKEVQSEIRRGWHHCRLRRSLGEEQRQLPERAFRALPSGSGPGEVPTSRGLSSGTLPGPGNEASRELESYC
# T2: GIP receptor (procedure of Example 3)
# T2 sequence (P48546 whole entry, species assumed, looked up): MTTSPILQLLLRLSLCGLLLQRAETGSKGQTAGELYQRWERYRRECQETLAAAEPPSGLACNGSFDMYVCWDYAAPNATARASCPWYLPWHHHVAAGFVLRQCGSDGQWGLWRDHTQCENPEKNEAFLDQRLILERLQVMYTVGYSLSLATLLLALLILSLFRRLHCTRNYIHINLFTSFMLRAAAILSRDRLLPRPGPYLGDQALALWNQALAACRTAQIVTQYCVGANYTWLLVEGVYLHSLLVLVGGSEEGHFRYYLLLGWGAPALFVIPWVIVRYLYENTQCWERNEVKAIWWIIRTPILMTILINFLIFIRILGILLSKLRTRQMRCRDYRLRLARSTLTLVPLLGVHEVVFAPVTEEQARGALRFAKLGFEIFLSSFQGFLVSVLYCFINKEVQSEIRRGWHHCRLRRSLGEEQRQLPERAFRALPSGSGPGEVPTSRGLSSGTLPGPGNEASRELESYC
# B1: peptide of SEQ ID NO: 17 (peptide)
# peptide: H[Aib]QGTFTSDK([γGlu-γGlu-Palmitoyl])SKYLD[Aib]RAAQDFVQWLMNTK[γGlu]-NH2
# modifications: N-terminus assumed
# SMILES: CCCCCCCCCCCCCCCC(=O)N[C@@H](CCC(=O)N[C@@H](CCC(=O)NCCCC[C@H](NC(=O)[C@H](CC(=O)O)NC(=O)[C@H](CO)NC(=O)[C@@H](NC(=O)[C@H](Cc1ccccc1)NC(=O)[C@@H](NC(=O)CNC(=O)[C@H](CCC(N)=O)NC(=O)C(C)(C)NC(=O)[C@@H](N)Cc1c[nH]cn1)[C@@H](C)O)[C@@H](C)O)C(=O)N[C@@H](CO)C(=O)N[C@@H](CCCCN)C(=O)N[C@@H](Cc1ccc(O)cc1)C(=O)N[C@@H](CC(C)C)C(=O)N[C@@H](CC(=O)O)C(=O)NC(C)(C)C(=O)N[C@@H](CCCNC(=N)N)C(=O)N[C@@H](C)C(=O)N[C@@H](C)C(=O)N[C@@H](CCC(N)=O)C(=O)N[C@@H](CC(=O)O)C(=O)N[C@@H](Cc1ccccc1)C(=O)N[C@H](C(=O)N[C@@H](CCC(N)=O)C(=O)N[C@@H](Cc1c[nH]c2ccccc12)C(=O)N[C@@H](CC(C)C)C(=O)N[C@@H](CCSC)C(=O)N[C@@H](CC(N)=O)C(=O)N[C@H](C(=O)N[C@@H](CCCCN)C(=O)N[C@@H](CCC(N)=O)C(=O)O)[C@@H](C)O)C(C)C)C(=O)O)C(=O)O
# B2: peptide of SEQ ID NO: 12 (peptide)
# peptide: H[Aib]QGTFTSDK([γGlu-γGlu-Palmitoyl])SKYLD[Aib]RAAQDFVQWLMDTK[γGlu]-NH2
# B3: peptide of SEQ ID NO: 15 (peptide)
# peptide: H[Aib]QGTFTSDK([γGlu-γGlu-Palmitoyl])SKYLD[Aib]RAAQDFVQWL[Morn]DTKQ-OH
# modifications: not fully specified; printed as HaibQGTFTSDK(γGlu-γGlu-C16)SKYLDaibRAAQDFVQWLMornDTKQ-acid; reading uncertain
# B4: peptide of SEQ ID NO: 16 (peptide)
# peptide: H[Aib]QGTFTSDK([γGlu-γGlu-Palmitoyl])SKYLD[Aib]RAAQDFVQWLLDTKQ-OH
# modifications: N-terminus assumed
# SMILES: CCCCCCCCCCCCCCCC(=O)N[C@@H](CCC(=O)N[C@@H](CCC(=O)NCCCC[C@H](NC(=O)[C@H](CC(=O)O)NC(=O)[C@H](CO)NC(=O)[C@@H](NC(=O)[C@H](Cc1ccccc1)NC(=O)[C@@H](NC(=O)CNC(=O)[C@H](CCC(N)=O)NC(=O)C(C)(C)NC(=O)[C@@H](N)Cc1c[nH]cn1)[C@@H](C)O)[C@@H](C)O)C(=O)N[C@@H](CO)C(=O)N[C@@H](CCCCN)C(=O)N[C@@H](Cc1ccc(O)cc1)C(=O)N[C@@H](CC(C)C)C(=O)N[C@@H](CC(=O)O)C(=O)NC(C)(C)C(=O)N[C@@H](CCCNC(=N)N)C(=O)N[C@@H](C)C(=O)N[C@@H](C)C(=O)N[C@@H](CCC(N)=O)C(=O)N[C@@H](CC(=O)O)C(=O)N[C@@H](Cc1ccccc1)C(=O)N[C@H](C(=O)N[C@@H](CCC(N)=O)C(=O)N[C@@H](Cc1c[nH]c2ccccc12)C(=O)N[C@@H](CC(C)C)C(=O)N[C@@H](CC(C)C)C(=O)N[C@@H](CC(=O)O)C(=O)N[C@H](C(=O)N[C@@H](CCCCN)C(=O)N[C@@H](CCC(N)=O)C(=O)O)[C@@H](C)O)C(C)C)C(=O)O)C(=O)O
# B5: peptide of SEQ ID NO: 13 (peptide)
# peptide: H[Aib]QGTFTSDYSKYLDERRA[Aib]EFVC(40K‑TE PEG)WLLDTK[γGlu]-NH2
# B6: peptide of SEQ ID NO: 14 (peptide)
# peptide: HSQGTFTSDKSKYLDERAAQDFVQWLLDTKX
# modifications: s at position 2 (lower case, presumably D-Ser); K(γGlu-C16) at position 10 (Lys acylated with C16 via γGlu spacer); C-terminal γGlu; C-terminal amide
# Biological target: human GLP-1R (CHO-K1 cells stably expressing human GLP-1R) (human, UniProt P43220 24-463)
# Experiment: cell-based or functional assay
row,Binder,"EC50 (nM) at GLP-1 receptor (cAMP production, DiscoveRx Hithunter cAMP XS+, CHO-K1) [nM]"
1,B1,0.075

# Biological target: T1, human GIPR (CHO-K1 cells stably …)
# Experiment: cell-based or functional assay
row,Binder,"EC50 (nM) at GIP receptor (cAMP production, DiscoveRx Hithunter cAMP XS+, CHO-K1) [nM]"
1,B1,> 2000

# Biological target: GLP-1 receptor (HEK293 cells co-transfected with the GLP-1 receptor and a CRE-luciferase gene)
# Experiment: cell-based or functional assay
row,Binder,"EC50 (nM) at GLP-1 receptor (cAMP-induced luciferase reporter, HEK293) [nM]"
1,B2,0.003
2,B3,0.005
3,B4,0.019
4,B5,0.567
5,B6,0.003

# Biological target: glucagon receptor (HEK293 cells co-transfected with the glucagon receptor and a CRE-luciferase gene)
# Experiment: cell-based or functional assay
row,Binder,"EC50 (nM) at glucagon receptor (cAMP-induced luciferase reporter, HEK293) [nM]"
1,B2,0.01
2,B3,0.006
3,B4,0.015
4,B5,2.81
5,B6,0.003

# Biological target: human GCGR (CHO-K1 cells stably expressing human GCGR) (human, UniProt P47871 26-477)
# Experiment: cell-based or functional assay
# Sequence of human GCGR (CHO-K1 cells stably expressing human GCGR) (P47871 26-477): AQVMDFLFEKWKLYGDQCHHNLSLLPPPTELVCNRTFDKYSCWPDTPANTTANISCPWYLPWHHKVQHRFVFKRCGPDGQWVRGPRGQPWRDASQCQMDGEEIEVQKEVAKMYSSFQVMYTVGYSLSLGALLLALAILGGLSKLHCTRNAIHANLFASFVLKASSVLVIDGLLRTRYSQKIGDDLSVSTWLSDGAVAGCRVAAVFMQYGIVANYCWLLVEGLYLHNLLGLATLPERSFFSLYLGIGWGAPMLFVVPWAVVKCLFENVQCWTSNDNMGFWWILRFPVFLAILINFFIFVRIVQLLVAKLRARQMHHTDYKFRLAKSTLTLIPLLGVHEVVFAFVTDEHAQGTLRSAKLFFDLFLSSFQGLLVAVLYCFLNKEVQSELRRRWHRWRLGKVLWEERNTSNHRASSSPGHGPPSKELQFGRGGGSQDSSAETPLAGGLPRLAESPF
row,Binder,"EC50 (nM) at glucagon receptor (cAMP production, DiscoveRx Hithunter cAMP XS+, CHO-K1) [nM]"
1,B1,0.11

# Biological target: T2, GIP receptor (procedure of Example 3)
# Experiment: cell-based or functional assay
row,Binder,EC50 (nM) at GIP receptor (procedure of Example 3) [nM]
1,B2,12.8
2,B3,1.9
3,B4,1.04
4,B5,140
5,B6,976
